Laboratory results reported in the Human Domainome abundance scans (Beltran et al. 2025).
± gives the uncertainty stated by the source.

B1: Ankyrin-3, residues 4094 to 4171; numbered along this chain, Q12955 (parent)
chain: MAIVADHLGLSWTELARELNFSVDEINQIRVENPNSLISQSFMLLKKWVTRDGKNATTDALTSVLTKINRIDIVTLLE

Variants of: B1
Assay: abundance fitness (aPCA) (normalised: wild type 0, dead -1); higher = more abundant; growth selection in yeast, the domain comes from the species named
Conditions: Homo sapiens
In the case of MAIVADHLGLSWTELARELNFSVDEINQIRVENPNSLISQSFMLLKKWVTRDGKNAGTDALTSVLTKINRIDIVTLLE [T57G], the abundance fitness is reported as -0.387 ± 0.06.
MAIVADHLGLSWTELARELNFSVDEINQIRVENPNSLISQSFMLLKKWVTRDGKNAATDALTSVLTKINRIDIVTLLE [T57A] showed an abundance fitness of -0.195 ± 0.066.
MAIVADHLGLSWTELARELNFSVDEINQIRVENPNSLISQSFMLLKKWVTRDGKNAETDALTSVLTKINRIDIVTLLE [T57E] gave an abundance fitness of -0.859 ± 0.17.
In the case of MAIVADHLGLSWTELARELNFSVDEINQIRVENPNSLISQSFMLLKKWVTRDGKWATTDALTSVLTKINRIDIVTLLE [N55W], the abundance fitness is reported as -0.135 ± 0.065.
In the case of MAIVADHLGLSWTELARELNFSVDEINQIRVENPNSLISQSFMLLKKWVTRDGKAATTDALTSVLTKINRIDIVTLLE [N55A], the abundance fitness is reported as 0.007 ± 0.06.
For MAIVADHLGLSWTELARELNFSVDEINQIRVENPNSLISQSFMLLKKWVTRDGKTATTDALTSVLTKINRIDIVTLLE [N55T], the abundance fitness was -0.115 ± 0.087.
In the case of MAIVADHLGLSWTELARELNFSVDEINQIRVENPNSLISQSFMLLKKWVTRDGKHATTDALTSVLTKINRIDIVTLLE [N55H], the abundance fitness is reported as -0.058 ± 0.094.
Work on MAIVADHLGLSWTELARELNFSVDEINQIRVENPNSLISQSFMLLKKWVTRDGKQATTDALTSVLTKINRIDIVTLLE [N55Q] yielded an abundance fitness of 0.011 ± 0.051.
MAIVADHLGLSWTELARELNFSVDEINQIRVENPNSLISQSFMLLKKWVTRDGKVATTDALTSVLTKINRIDIVTLLE [N55V] gave an abundance fitness of -0.114 ± 0.062.
MAIVADHLGLSWTELARELNFSVDEINQIRVENPNSLISQSFMLLKKWVTRDGKPATTDALTSVLTKINRIDIVTLLE [N55P] gave an abundance fitness of -0.603 ± 0.094.
MAIVADHLGLSWTELARELNFSVDEINQIRVENPNSLISQSFMLLKKWVTRDGKGATTDALTSVLTKINRIDIVTLLE [N55G] showed an abundance fitness of 0.057 ± 0.038.
In the case of MAIVADHLGLSWTELARELNFSVDEINQIRVENPNSLISQSFMLLKKWVTRDGKFATTDALTSVLTKINRIDIVTLLE [N55F], the abundance fitness is reported as -0.15 ± 0.1.
Work on MAIVADHLGLSWTELARELNFSVDEINQIRVENPNSLISQSFMLLKKWVTRDGKEATTDALTSVLTKINRIDIVTLLE [N55E] yielded an abundance fitness of -0.079 ± 0.093.
Variant MAIVADHLGLSWTELARELNFSVDEINQIRVENPNSLISQSFMLLKKWVTRDGKMATTDALTSVLTKINRIDIVTLLE [N55M] has an abundance fitness of -0.047 ± 0.075.
In the case of MAIVADHLGLSWTELARELNFSVDEINQIRVENPNSLISQSFMLLKKWVTRDGKRATTDALTSVLTKINRIDIVTLLE [N55R], the abundance fitness is reported as -0.073 ± 0.042.
With MAIVADHLGLSWTELARELNFSVDEINQIRVENPNSLISQSFMLLKKWVTRDGKYATTDALTSVLTKINRIDIVTLLE [N55Y] the abundance fitness was -0.041 ± 0.15.
MAIVADHLGLSWTELARELNFSVDEINQIRVENPNSLISQSFMLLKKWVTRDGKCATTDALTSVLTKINRIDIVTLLE [N55C] showed an abundance fitness of -0.157 ± 0.13.
For MAIVADHLGLSWTELARELNFSVDEINQIRVENPNSLISQSFMLLKKWVTRDGKDATTDALTSVLTKINRIDIVTLLE [N55D], the abundance fitness was 0.066 ± 0.11.
In the case of MAIVADHLGLSWTELARELNFSVDEINQIRVENPNSLISQSFMLLKKWVTRDGKLATTDALTSVLTKINRIDIVTLLE [N55L], the abundance fitness is reported as -0.004 ± 0.042.
Variant MAIVADHLGLSWTELARELNFSVDEINQIRVENPNSLISQSFMLLKKWVTRDGKSATTDALTSVLTKINRIDIVTLLE [N55S] has an abundance fitness of -0.021 ± 0.052.
Work on MAIVADHLGLSWTELARELNFSVDEINQIRVENPNSLISQSFMLLKKWVTRDTKNATTDALTSVLTKINRIDIVTLLE [G53T] yielded an abundance fitness of -0.521 ± 0.14.
For MAIVADHLGLSWTELARELNFSVDEINQIRVENPNSLISQSFMLLKKWVTRDPKNATTDALTSVLTKINRIDIVTLLE [G53P], the abundance fitness was -0.149 ± 0.051.
MAIVADHLGLSWTELARELNFSVDEINQIRVENPNSLISQSFMLLKKWVTRDMKNATTDALTSVLTKINRIDIVTLLE [G53M] gave an abundance fitness of -0.772 ± 0.26.
Variant MAIVADHLGLSWTELARELNFSVDEINQIRVENPNSLISQSFMLLKKWVTRDKKNATTDALTSVLTKINRIDIVTLLE [G53K] has an abundance fitness of -0.145 ± 0.13.
In the case of MAIVADHLGLSWTELARELNFSVDEINQIRVENPNSLISQSFMLLKKWVTRDLKNATTDALTSVLTKINRIDIVTLLE [G53L], the abundance fitness is reported as -0.832 ± 0.13.
In the case of MAIVADHLGLSWTELARELNFSVDEINQIRVENPNSLISQSFMLLKKWVTRDHKNATTDALTSVLTKINRIDIVTLLE [G53H], the abundance fitness is reported as -0.3 ± 0.28.
MAIVADHLGLSWTELARELNFSVDEINQIRVENPNSLISQSFMLLKKWVTRDFKNATTDALTSVLTKINRIDIVTLLE [G53F] showed an abundance fitness of -0.728 ± 0.14.
Work on MAIVADHLGLSWTELARELNFSVDEINQIRVENPNSLISQSFMLLKKWVTRDRKNATTDALTSVLTKINRIDIVTLLE [G53R] yielded an abundance fitness of -0.367 ± 0.057.
For MAIVADHLGLSWTELARELNFSVDEINQIRVENPNSLISQSFMLLKKWVTRDQKNATTDALTSVLTKINRIDIVTLLE [G53Q], the abundance fitness was -0.065 ± 0.059.
MAIVADHLGLSWTELARELNFSVDEINQIRVENPNSLISQSFMLLKKWVTRDVKNATTDALTSVLTKINRIDIVTLLE [G53V] showed an abundance fitness of -0.672 ± 0.089.
For MAIVADHLGLSWTELARELNFSVDEINQIRVENPNSLISQSFMLLKKWVTRDEKNATTDALTSVLTKINRIDIVTLLE [G53E], the abundance fitness was -0.111 ± 0.072.
With MAIVADHLGLSWTELARELNFSVDEINQIRVENPNSLISQSFMLLKKWVTRDYKNATTDALTSVLTKINRIDIVTLLE [G53Y] the abundance fitness was -0.962 ± 0.44.
With MAIVADHLGLSWTELARELNFSVDEINQIRVENPNSLISQSFMLLKKWVTRDDKNATTDALTSVLTKINRIDIVTLLE [G53D] the abundance fitness was -0.578 ± 0.13.
In the case of MAIVADHLGLSWTELARELNFSVDEINQIRVENPNSLISQSFMLLKKWVTRDSKNATTDALTSVLTKINRIDIVTLLE [G53S], the abundance fitness is reported as -0.325 ± 0.046.
MAIVADHLGLSWTELARELNFSVDEINQIRVENPNSLISQSFMLLKKWVTRDWKNATTDALTSVLTKINRIDIVTLLE [G53W] gave an abundance fitness of -0.849 ± 0.16.
